Measurements as given in US7056679 (ANTYRA, dated 2006).

T1: DGI-2 polypeptide (UniProt Q15004 1-111, limits assumed)
T1 construct: Vector-derived residues or tag of pIVEX2.3 are not described for this construct; also called KIAA0101
T1 sequence (looked up): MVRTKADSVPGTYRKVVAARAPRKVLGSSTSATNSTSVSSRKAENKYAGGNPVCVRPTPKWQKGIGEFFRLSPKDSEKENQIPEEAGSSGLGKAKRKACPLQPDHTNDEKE

T2: DGI-9 (HEC) (UniProt O14777 1-642, limits assumed)
T2 sequence (looked up): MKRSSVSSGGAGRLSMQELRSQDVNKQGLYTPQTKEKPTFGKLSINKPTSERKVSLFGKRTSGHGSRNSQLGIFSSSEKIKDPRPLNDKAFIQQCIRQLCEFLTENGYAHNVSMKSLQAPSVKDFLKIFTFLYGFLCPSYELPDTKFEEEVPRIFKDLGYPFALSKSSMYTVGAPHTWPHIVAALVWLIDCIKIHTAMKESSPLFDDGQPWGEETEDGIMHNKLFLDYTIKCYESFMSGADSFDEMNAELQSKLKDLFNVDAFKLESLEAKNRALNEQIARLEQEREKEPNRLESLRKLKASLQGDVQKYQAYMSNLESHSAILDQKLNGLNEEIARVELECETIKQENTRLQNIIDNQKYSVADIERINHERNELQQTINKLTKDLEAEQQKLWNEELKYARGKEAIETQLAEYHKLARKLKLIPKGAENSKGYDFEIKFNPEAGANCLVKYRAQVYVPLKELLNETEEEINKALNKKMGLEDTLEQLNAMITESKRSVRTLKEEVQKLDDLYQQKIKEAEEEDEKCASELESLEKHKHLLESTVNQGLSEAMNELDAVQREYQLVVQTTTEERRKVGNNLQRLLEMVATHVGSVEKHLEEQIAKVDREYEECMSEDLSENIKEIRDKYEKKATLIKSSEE


Experiments:
[1] = target: T3, antibody raised against ETAG; assay: phage ELISA, 405 nm; anti-E-tag antibody coated
T3 construct: read-out of display; also called E-tag antibody; E tag antibody
Description: (§1) For analysis of individual target binders, colonies were picked and phage prepared as described above using helper phage, M13KO7. Ninety-six-well microtiter plates were coated with 500 ng/well of specific target protein, 500 ng/well lactate dehydrogenase (LDH) irrelevant or non-specific target, 500 ng/well of positive control antibody raised against ETAG, and negative control of non-fat milk powder-PBS 2% at 4° C. overnight. Plates were then blocked with 350 microliters/well PBS containing 2% non-fat milk for 1 hr at room temperature. One hundred microliters per well of phage from isolated clones were added and plates were incubated at room temperature for 2 hr after centrifuging samples for 20 minutes at 3500 rpm at 4° C. The phage solution was then removed, and the wells were washed three times with PBS at room temperature. Antibody raised against M13 conjugated to horseradish peroxidase (Pharmacia) was diluted 1:3000 in PBS-Tween and added to each well (100 µl/well). Incubation was for 1 hr at room temperature, followed by washing with PBS-(0.5%) Tween 3 times as described. Color was developed by addition of ABTS solution (100 µl/well; Boehringer, Indianapolis, Ind.). Plates were analyzed at 405 nm. A clone was considered "positive" if the $A405$ of the well was $\geq$2-fold over background.

DGI-2 polypeptide [2] = target: T1, DGI-2 polypeptide; assay: phage ELISA, 405 nm; DGI-2 signal over LDH signal
Description: as §1

DGI-2 polypeptide [3] = target: T1, DGI-2 polypeptide; assay: phage ELISA, 405 nm; DGI-2 coated
Description: as §1

DGI-9 (HEC) [4] = target: T2, DGI-9 (HEC); assay: phage ELISA; DGI-9 coated
[5] = target: T3, antibody raised against ETAG; assay: phage ELISA; anti-E-tag antibody coated
DGI-9 (HEC) [6] = target: T2, DGI-9 (HEC); assay: phage ELISA; DGI-9 signal over LDH signal

Row | Binder | ETAG (OD) [1] [OD] | DGI-2/LDH (OD) (DGI-2 polypeptide [2]) [ratio] | DGI-2 (OD) (DGI-2 polypeptide [3]) | DGI-9 (DGI-9 (HEC) [4]) [ratio over background] | E-Tag [5] [ratio over background] | DGI9/LDH (DGI-9 (HEC) [6]) [ratio]
1 | FSSTGILLRSGRATAVGHVTAAAGAPVPYPDPLEPRP (not shown: phage gene III coat protein (pCANTAB5E)) [DGI-2-20F-3-A6] | 13.2 | 1.4 | 1.5 |  |  | 
2 | GMWIRPNGHMFLQGGYTARSAAAGAPVPYPDPLEPRP (not shown: phage gene III coat protein (pCANTAB5E)) [DGI-2-20R-4-G8] | 14.5 | 1.4 | 1.5 |  |  | 
3 | VAFGEQIRVAMAGTLWQRWRAAAGAPVPYPDPLEPRP (not shown: phage gene III coat protein (pCANTAB5E)) [DGI-2-20R-3-D5] | 8.5 | 1.4 | 1.5 |  |  | 
4 | YDQVWNSLLAAVLGGQELVNAAAGAPVPYPDPLEPRP (not shown: phage gene III coat protein (pCANTAB5E)) [DGI-2-20F-3-D112] | 19.9 | 1.4 | 1.4 |  |  | 
5 | LSVFRPGQFPHVGARGVSRTAAAGAPVPYPDPLEPRP (not shown: phage gene III coat protein (pCANTAB5E)) [DGI-2-20R-4-G32] | 11 | 1.2 | 1.4 |  |  | 
6 | DGI-2-40F-3-B10 (not shown: phage gene III coat protein (pCANTAB5E)) peptide: MQAASTLSTYMGAIRMGYPILHWDRGGVQRVDPGLYRGRVAAAGAPVPYPDPLEPRP | 4.8 | 1.4 | 1.3 |  |  | 
7 | RCFQDGRMLALSPTYLIRRSVSPLVVGPLPTPAAAGAPVPYPDPLEPRP (not shown: phage gene III coat protein (pCANTAB5E)) [DGI-2-40F-3-A24] | 11.7 | 1.4 | 1.3 |  |  | 
8 | MAVLPAARDFGGVVQGGVSGAAAGAPVPYPDPLEPRP (not shown: phage gene III coat protein (pCANTAB5E)) [DGI-2-20F-3-C2] | 11.5 | 1.3 | 1.3 |  |  | 
9 | DGI-2-40F-3-C7 (not shown: phage gene III coat protein (pCANTAB5E)) peptide: HPWVTNMLVFQRPPPPGFWLSDTTPRQRNGLGQVERPSVDAAAGAPVPYPDPLEPRP | 8.8 | 1.5 | 1.2 |  |  | 
10 | LSRIWRGVIESAREVESRGIAAAGAPVPYPDPLEPRP (not shown: phage gene III coat protein (pCANTAB5E)) [DGI-2-20F-3-B1] | 11.4 | 1.2 | 1.2 |  |  | 
11 | LHRLGQSMGGTLDHLQGWGVAAAGAPVPYPDPLEPRP (not shown: phage gene III coat protein (pCANTAB5E)) [DGI-2-20R-4-E5] | 17.9 | 1.1 | 1.2 |  |  | 
12 | DGI-2-40F-3-D9 (not shown: phage gene III coat protein (pCANTAB5E)) peptide: RRTSADTDQLSRWEGAQAFSSLRSALSERLDSLRPGLPPSAAAGAPVPYPDPLEPRP | 15.8 | 1.4 | 1.1 |  |  | 
13 | FSSVLGLLDRRGVPVVVGEDAAAGAPVPYPDPLEPRP (not shown: phage gene III coat protein (pCANTAB5E)) [DGI-2-20F-3-C3] | 11.6 | 1.1 | 1.1 |  |  | 
14 | LVIQCSASVVACDLYWNYVGCLAAGAAAGAPVPYPDPLEPRP (not shown: phage gene III coat protein (pCANTAB5E)) [DGI-2-20C-3-D12] | 3.6 | 1.1 | 1.1 |  |  | 
15 | DGI-2-40F-3-C52 (not shown: phage gene III coat protein (pCANTAB5E)) peptide: GLLFTSSPYQCFWVHCTLTMSPLSVLGDLSSTIGRMRASRAAAGAPVPYPDPLEPRP | 4.6 | 1.3 | 1 |  |  | 
16 | DGI-2-40F-3-B72 (not shown: phage gene III coat protein (pCANTAB5E)) peptide: PKDGAAFKGSDFIQGGQTVMERAPALWWRDGGGQWEAPSTAAAGAPVPYPDPLEPRP | 10.4 | 1.3 | 1 |  |  | 

Row | Binder | ETAG (OD) [1] [OD] | DGI-2/LDH (OD) (DGI-2 polypeptide [2]) [ratio] | DGI-2 (OD) (DGI-2 polypeptide [3]) | DGI-9 (DGI-9 (HEC) [4]) [ratio over background] | E-Tag [5] [ratio over background] | DGI9/LDH (DGI-9 (HEC) [6]) [ratio]
17 | DGI-2-40F-3-B95 (not shown: phage gene III coat protein (pCANTAB5E)) peptide: DYKTCVSQHVHPLFGEYFYHKVTHMSILSPTFRVTSLYGKAAAGAPVPYPDPLEPRP | 5.4 | 1.2 | 1 |  |  | 
18 | DGI-2-40F-3-B5 (not shown: phage gene III coat protein (pCANTAB5E)) peptide: RSRSSSGASGSMLRVQNHMVLGSWMVRQPMGSMTPFHGHGAAAGAPVPYPDPLEPRP | 9.2 | 1.2 | 1 |  |  | 
19 | DGI-2-40F-3-B4 (not shown: phage gene III coat protein (pCANTAB5E)) peptide: LWLPCGLLVRPAQFYFYFSPLRHFLSSSVGSLSFPLSLLVAAAGAPVPYPDPLEPRP | 1.5 | 1.1 | 1 |  |  | 
20 | DGI-2-40F-3-B6 (not shown: phage gene III coat protein (pCANTAB5E)) peptide: QSNVWVLVGVIMQGVWYQRQHYCVYVMLLSDQVSVLLAVAAAAGAPVPYPDPLEPRP | 1.8 | 1.2 | 0.9 |  |  | 
21 | DGI-2-40F-3-A7 (not shown: phage gene III coat protein (pCANTAB5E)) peptide: CAYRWGLFRGPGRVDYDLQVVGIMMWPGPIPDRSSRGSVAAAAGAPVPYPDPLEPRP | 8.7 | 1.1 | 0.9 |  |  | 
22 | DGI-2-40F-3-A12 (not shown: phage gene III coat protein (pCANTAB5E)) peptide: RRTQPAYRSGADDRTSGFYCYVTSALSAGAWMPFLPRRLAAAAGAPVPYPDPLEPRP | 4.6 | 1.1 | 0.9 |  |  | 
23 | DGI-2-40F-3-D3 (not shown: phage gene III coat protein (pCANTAB5E)) peptide: VQFAMTLSSRLWQHARHPLTDDAPPTVSFGTRRETLAGKAAAAGAPVPYPDPLEPRP | 0.9 | 1.1 | 0.9 |  |  | 
24 | DGI-2-40F-3-B1 (not shown: phage gene III coat protein (pCANTAB5E)) peptide: HGTRLRGVDYVMTWAGWQGYSSRKHVQQAVAGSSPGSDELAAAGAPVPYPDPLEPRP | 6.3 | 1.2 | 0.8 |  |  | 
25 | DGI-2-40F-3-A8 (not shown: phage gene III coat protein (pCANTAB5E)) peptide: GQISLAGVAVCSSERMLLAFSSRVFLPGLKVPVTTSQRGSAAAGAPVPYPDPLEPRP | 1.5 | 1.1 | 0.8 |  |  | 
26 | DGI-2-40F-3-A1 (SEQ ID NO: 187) (not shown: phage gene III coat protein (pCANTAB5E)) peptide: QYFARGSFQFGLSHVLSAAAAFHLYVFCKRLSRGFGIKDDAAAGAPVPYPDPLEPRP | 2.4 | 1.1 | 0.8 |  |  | 
27 | DGI-2-40F-3-D1 (not shown: phage gene III coat protein (pCANTAB5E)) peptide: MGQGFHYNRQPYMSHQCYAFTFSTPFLDGDRIPHGVSRGLAAAGAPVPYPDPLEPRP | 4.1 | 1 | 0.8 |  |  | 
28 | FLLQDFIMDAGSFVKPIGVGGAPVPYPDPLEPR (library 20F; not shown: phage gene III coat protein (pCANTAB5E)) [DGI9-20M-4-A414] |  |  |  | 8.7 | 32.6 | 8.1
29 | MAGFRGSGLSGYSEARLPRVGAPVPYPDPLEPR (library 20F; not shown: phage gene III coat protein (pCANTAB5E)) [DGI9-20M-4-E3] |  |  |  | 7 | 34.5 | 7.1
30 | WDWSRFGAQLRGAILGRATGGAPVPYPDPLEPR (library 20R (the E-tag is described for library 20F); not shown: phage gene III coat protein (pCANTAB5E)) [DGI9-20M-4-A627] |  |  |  | 6 | 27.2 | 6.5
31 | SRLALSSQHGLSLVAGRRRGGAPVPYPDPLEPR (library 20R (the E-tag is described for library 20F); not shown: phage gene III coat protein (pCANTAB5E)) [DGI9-20M-4-A12] |  |  |  | 1.9 | 20.7 | 2.1
